The text below walks through data of PMC7653264 (2020).

One may read the Kd as the free concentration of one partner at which half of the binding sites on the other are occupied at equilibrium, for simple one-to-one binding.

In test [1] the target is T1, GST-PCNA (UniProt P12004 1-261). In words: ITC. For orientation: Isothermal titration calorimetry measures the heat released or taken up as one component is titrated into another.
In test [2] the target is T1, GST-PCNA. In words: ITC. The source holds these as a separate data set.

T1 sequence (P12004 whole entry): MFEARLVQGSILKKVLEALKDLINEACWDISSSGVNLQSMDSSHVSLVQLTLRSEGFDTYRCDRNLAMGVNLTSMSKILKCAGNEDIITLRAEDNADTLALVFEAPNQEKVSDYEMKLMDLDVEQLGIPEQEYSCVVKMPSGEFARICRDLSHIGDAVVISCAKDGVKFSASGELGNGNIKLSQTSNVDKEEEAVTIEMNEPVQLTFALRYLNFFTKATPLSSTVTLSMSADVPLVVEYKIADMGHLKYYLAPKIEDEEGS

Take AQDFKTDLR [H3K79me0 peptide (amino acids H3 75-83)]: the Ka in test [1] worked out at 1.16e+06 M⁻¹. For the same molecule, binding in test [2] was characterised by a dissociation constant (Kd) of 1330 nM.
